Test results as given in patent publication US20230012273A1 (Boehringer Ingelheim, published 2023).
Numbering of substitutions follows the chain as printed.

T1: cynomolgus SIRPα (EGM_02252) extracellular domain + His-tag (cynomolgus monkey)
T1 construct: SPR analyte; also called CySIRPα EGM_02252; cynoSIRPα; not shown: His-tag
T1 chain: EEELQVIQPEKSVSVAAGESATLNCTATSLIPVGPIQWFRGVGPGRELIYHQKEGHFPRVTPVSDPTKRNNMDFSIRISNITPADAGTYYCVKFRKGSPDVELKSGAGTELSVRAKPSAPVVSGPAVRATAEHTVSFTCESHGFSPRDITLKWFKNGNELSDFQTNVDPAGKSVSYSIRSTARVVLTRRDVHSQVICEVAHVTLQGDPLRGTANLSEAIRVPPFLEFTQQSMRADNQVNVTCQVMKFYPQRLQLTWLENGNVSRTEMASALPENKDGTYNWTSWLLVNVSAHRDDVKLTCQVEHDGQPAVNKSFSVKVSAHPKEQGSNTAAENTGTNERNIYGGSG

T2: cynomolgus SIRPβ1 (XP_005568598) extracellular domain + His-tag (cynomolgus monkey)
T2 construct: SPR analyte; also called Cyno SIRPβ1 XP_005568598; cynoSIRPβ1; not shown: His-tag
T2 chain: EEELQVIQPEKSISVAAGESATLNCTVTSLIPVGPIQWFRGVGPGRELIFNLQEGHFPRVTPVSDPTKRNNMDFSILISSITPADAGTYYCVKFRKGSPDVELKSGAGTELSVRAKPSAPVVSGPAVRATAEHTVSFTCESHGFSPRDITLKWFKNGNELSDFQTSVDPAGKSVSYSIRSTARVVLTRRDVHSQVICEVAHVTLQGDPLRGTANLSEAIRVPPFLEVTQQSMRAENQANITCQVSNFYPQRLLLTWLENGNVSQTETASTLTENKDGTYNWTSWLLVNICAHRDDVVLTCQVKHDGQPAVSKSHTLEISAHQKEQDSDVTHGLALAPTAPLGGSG

T3: cynomolgus SIRPγ (XP_005568591) extracellular domain + His-tag (cynomolgus monkey, UniProt Q9P1W8 29-359 (human entry))
T3 construct: SPR analyte; also called Cyno SIRPγ XP_005568591; cynoSIRPγ; not shown: His-tag
T3 chain: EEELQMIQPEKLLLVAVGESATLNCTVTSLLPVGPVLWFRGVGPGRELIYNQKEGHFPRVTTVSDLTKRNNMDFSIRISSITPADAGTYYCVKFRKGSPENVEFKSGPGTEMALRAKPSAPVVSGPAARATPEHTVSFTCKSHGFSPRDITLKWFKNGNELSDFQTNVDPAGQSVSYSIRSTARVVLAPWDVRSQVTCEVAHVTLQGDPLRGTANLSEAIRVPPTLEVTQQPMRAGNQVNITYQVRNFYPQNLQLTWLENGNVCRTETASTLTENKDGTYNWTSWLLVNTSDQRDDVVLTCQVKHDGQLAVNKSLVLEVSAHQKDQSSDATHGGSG

T4: cynomolgus SIRPβ1v3 (XP_005568593) extracellular domain + His-tag (cynomolgus monkey)
T4 construct: SPR analyte; also called Cyno SIRPβ1v3 XP_005568593; cynoSIRPβ1v3; not shown: His-tag
T4 chain: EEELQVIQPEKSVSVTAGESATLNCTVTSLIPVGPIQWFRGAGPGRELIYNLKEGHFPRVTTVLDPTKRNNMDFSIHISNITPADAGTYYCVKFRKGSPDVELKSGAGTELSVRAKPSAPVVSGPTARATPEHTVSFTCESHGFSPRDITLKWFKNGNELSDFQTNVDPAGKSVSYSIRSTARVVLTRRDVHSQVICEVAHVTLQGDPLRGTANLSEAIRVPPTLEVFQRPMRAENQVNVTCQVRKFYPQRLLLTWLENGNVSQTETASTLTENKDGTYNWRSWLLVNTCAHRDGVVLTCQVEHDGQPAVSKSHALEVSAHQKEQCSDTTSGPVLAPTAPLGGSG

B1: Antibody E3 (antibody, human IgG1, kappa, L234A L235A, V domains shown)
VH: QVQLQESGPGLVRPSETLSLTCTVSGGSIRNYYWSWIRQPPGKGLEWIGFIYYNGRTFYNPSLKSRVTISLDMSKNQFSLKMTSVTAADTAVYYCARVRAYSGIGLDGTDVWGQGTTVTVSS
VL: DIVMTQSPLSLPVTPGEPASISCKSSQSLLYSNGYAYLDWYLQRPGQSPQLLIYQGSNRASGVPDRFSGSGSGTDFTLKISRVEAEDVGVFYCMQALQTPLTFGGGTKVEIKR
B2: Antibody E4 (antibody, human IgG1, kappa, L234A L235A, V domains shown)
VH: B1 VH
VL: B1 VL with Q55L, F91Y
B3: Antibody E12 (antibody, human IgG1, kappa, L234A L235A, V domains shown)
VH: B1 VH
VL: B1 VL with G34A, A36N, Q55L, F91Y
B4: Antibody E9 (antibody, human IgG1, kappa, L234A L235A, V domains shown)
VH: B1 VH with K75I
VL: B1 VL with G34A, A36N, Q55L, F91Y
B5: Antibody E11 (antibody, human IgG1, kappa, L234A L235A, V domains shown)
VH: B1 VH with I48M, Y53D, K75M
VL: B1 VL with Q55L, F91Y
B6: Antibody E5 (antibody, human IgG1, kappa, L234A L235A, V domains shown)
VH: B1 VH with M73K
VL: B1 VL
B7: Antibody E8 (antibody, human IgG1, kappa, L234A L235A, V domains shown)
VH: B1 VH with I48M, Y53D, K75M
VL: B1 VL
B8: Antibody E21 (antibody, human IgG1, kappa, L234A L235A, V domains shown)
VH: B1 VH with N54T
VL: B1 VL with G34A, A36N, Q55L, F91Y
B9: Antibody E20 (antibody, human IgG1, kappa, L234A L235A, V domains shown)
VH: B1 VH with N54T, K75I
VL: B1 VL with G34A, A36N, Q55L, F91Y
B10: Antibody E14 (antibody, human IgG1, kappa, L234A L235A, V domains shown)
VH: B1 VH with M73K
VL: B1 VL with G34A, A36N, Q55L, F91Y
B11: Antibody E7 (antibody, human IgG1, kappa, L234A L235A, V domains shown)
VH: B1 VH with M73T
VL: B1 VL
B12: Antibody E18 (antibody, human IgG1, kappa, L234A L235A, V domains shown)
VH: B1 VH with N54T
VL: B1 VL with Q55L, F91Y
B13: Antibody E13 (antibody, human IgG1, kappa, L234A L235A, V domains shown)
VH: B1 VH with N54T, K75I
VL: B1 VL
B14: Antibody E19 (antibody, human IgG1, kappa, L234A L235A, V domains shown)
VH: B1 VH with N54T
VL: B1 VL
B15: Antibody E10 (antibody, human IgG1, kappa, L234A L235A, V domains shown)
VH: B1 VH with M73T
VL: B1 VL with Q55L, F91Y
B16: Antibody E15 (antibody, human IgG1, kappa, L234A L235A, V domains shown)
VH: B1 VH with N54T, K75I
VL: B1 VL with Q55L, F91Y
B17: Antibody E6 (antibody, human IgG1, kappa, L234A L235A, V domains shown)
VH: B1 VH with M73K
VL: B1 VL with Q55L, F91Y
B18: Antibody E17 (antibody, human IgG1, kappa, L234A L235A, V domains shown)
VH: B1 VH with I48M, Y53D, K75M
VL: B1 VL with G34A, A36N, Q55L, F91Y

Molecular target: T1, cynomolgus SIRPα (EGM_02252) …
Test: SPR
Experimental: (§1) The binding affinity of anti-SIRPα antibodies to the various SIRPα analytes is determined by surface plasmon resonance (SPR) using a ProteOn XPR36 (Bio-Rad). The running buffer for this experiment and all dilutions (except where stated) are done in 1×HBS-EP+. […] The sensorchip is deactivated with 1M ethanolamine HCl for 420 sec at a flowrate of 10 μl/min.
(§2) The analyte is injected over the captured antibody for 300 sec at a flowrate of 30 μl/min. The dissociation is done for 600 sec. Two-fold serial dilutions of each SIRP protein (Extracellular Domain+His-Tag) are injected as analyte with the highest concentrations indicated in table 36 below.

binding result	Binder
no binding (tested: 1000 nM)	B1
no binding (tested: 1000 nM)	B2
no binding (tested: 1000 nM)	B3
no binding (tested: 1000 nM)	B4
no binding (tested: 1000 nM)	B5
no binding (tested: 1000 nM)	B6
no binding (tested: 1000 nM)	B7
no binding (tested: 1000 nM)	B8
no binding (tested: 1000 nM)	B9
no binding (tested: 1000 nM)	B10
no binding (tested: 1000 nM)	B11
no binding (tested: 1000 nM)	B12
no binding (tested: 1000 nM)	B13
no binding (tested: 1000 nM)	B14
no binding (tested: 1000 nM)	B15
no binding (tested: 1000 nM)	B16
no binding (tested: 1000 nM)	B17
no binding (tested: 1000 nM)	B18

Molecular target: T2, cynomolgus SIRPβ1 (XP_005568598) …
Test: SPR
Experimental: as §1, §2

binding result	Binder
no binding (tested: 1000 nM)	B1
no binding (tested: 1000 nM)	B2
no binding (tested: 1000 nM)	B3
no binding (tested: 1000 nM)	B4
no binding (tested: 1000 nM)	B5
no binding (tested: 1000 nM)	B6
no binding (tested: 1000 nM)	B7
no binding (tested: 1000 nM)	B8
no binding (tested: 1000 nM)	B9
no binding (tested: 1000 nM)	B10
no binding (tested: 1000 nM)	B11
no binding (tested: 1000 nM)	B12
no binding (tested: 1000 nM)	B13
no binding (tested: 1000 nM)	B14
no binding (tested: 1000 nM)	B15
no binding (tested: 1000 nM)	B16
no binding (tested: 1000 nM)	B17
no binding (tested: 1000 nM)	B18

Molecular target: T3, cynomolgus SIRPγ (XP_005568591) …
Test: SPR
Experimental: as §1, §2

binding result	Binder
no binding (tested: 1000 nM)	B1
no binding (tested: 1000 nM)	B2
no binding (tested: 1000 nM)	B3
no binding (tested: 1000 nM)	B4
no binding (tested: 1000 nM)	B5
no binding (tested: 1000 nM)	B6
no binding (tested: 1000 nM)	B7
no binding (tested: 1000 nM)	B8
no binding (tested: 1000 nM)	B9
no binding (tested: 1000 nM)	B10
no binding (tested: 1000 nM)	B11
no binding (tested: 1000 nM)	B12
no binding (tested: 1000 nM)	B13
no binding (tested: 1000 nM)	B14
no binding (tested: 1000 nM)	B15
no binding (tested: 1000 nM)	B16
no binding (tested: 1000 nM)	B17
no binding (tested: 1000 nM)	B18

Molecular target: T4, cynomolgus SIRPβ1v3 (XP_005568593) …
Test: SPR, antibody captured, ECD-His analyte
Experimental: as §1, §2

Kd [nM]	Binder
10.7	B1
13.1	B2
27.9	B3
25.1	B4
13.2	B5
22.6	B6
10.8	B7
56.5	B8
57.4	B9
51.9	B10
13.1	B11
27.8	B12
20.5	B13
25	B14
15.7	B15
25.8	B16
23.9	B17
27	B18
